Target: CCR5 (UniProt P51681)
Test: cell-based or functional assay

Sequence of CCR5 (P51681 whole entry): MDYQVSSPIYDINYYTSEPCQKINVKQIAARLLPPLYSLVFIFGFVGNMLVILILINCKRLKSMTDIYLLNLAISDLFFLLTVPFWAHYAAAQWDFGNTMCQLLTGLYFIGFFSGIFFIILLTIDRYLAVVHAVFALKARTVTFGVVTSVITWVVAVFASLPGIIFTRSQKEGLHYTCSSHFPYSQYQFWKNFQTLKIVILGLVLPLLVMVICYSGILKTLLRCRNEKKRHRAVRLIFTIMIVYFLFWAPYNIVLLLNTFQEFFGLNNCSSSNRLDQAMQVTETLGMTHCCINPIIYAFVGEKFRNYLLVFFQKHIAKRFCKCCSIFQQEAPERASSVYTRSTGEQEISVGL

aminooxypentane(AOP)-RANTES (from UniProt P13501 24-91) (ligand)
IC50, R5-tropic envelope-mediated cell fusion assay: 3 nM
